Experimental data as given in patent US20220089705A1 (Harvard, published 2022).
Substitutions are numbered along the chain they refer to. Names may count otherwise. Each block holds one binder with its values, some of them ahead of it.

Assays:
[1] = target: T1, recombinant human FABP5/Mal1 (human, UniProt Q01469 1-135); assay: Octet RED384: biotinylated human FABP5/Mal1 on streptavidin biosensors, maximal association signal minus background
T1 construct: Bought; Biotinylated and loaded on streptavidin biosensors; also called hFABP5/hMal1; Mal1/FABP5
Protocol: The recombinant human proteins aP2 (generated at UCB in E. coli (see method below)), hFABP3 (Sino Biological Inc.) and hFABP5/hMal1 (Sino Biological Inc.) were biotinylated in a 5-fold molar excess of EZ-Link® Sulfo-NHS-LC-Biotin (Thermo Fisher Scientific) and purified from unbound biotin using a Zeba desalting column (Thermo Fisher Scientific). All binding studies were performed at 25° C. using a ForteBio Octet RED384 system (Pall ForteBio Corp.). After a 120 s baseline step in PBS containing 0.05% Tween 20, pH7.4 (PBS-T), Dip and Read™ streptavidin (SA) biosensors (Pall ForteBio Corp.) were loaded with biotinylated recombinant haP2, hFABP3 or hFABP5/hMal1 at 60 nM for 90 s. After a 60 s stabilisation step in PBS-T, each FABP-loaded biosensor was transferred to a sample of monoclonal antibody at 800 nM and association was measured for 5 min. Biosensors were then transferred back to PBS-T for 5 min to measure dissociation. Non-specific binding of antibodies was monitored using unloaded biosensor tips. Maximal association binding i.e., once signal had plateaued, minus background binding, was plotted for each antibody/FABP combination.

[2] = target: T2, human aP2 (fatty acid-binding protein, adipocyte, FABP4/aP2) (human, UniProt P15090 1-132, Biotinylated with Sulfo-NHS-LC-Biotin in the Octet assay. Refolded with palmitic acid after delipidation. The letters carry neither.); assay: SPR, Biacore T200: antibody captured on immobilized anti-mouse IgG Fc, aP2 titrated 40 to 0.625 µM, steady state fit
T2 construct: also called haP2; human FABP4
Protocol: (§1) The affinity of anti-aP2 binding to aP2 (recombinantly generated in E. coli as described below) was determined by biomolecular interaction analysis, using a Biacore T200 system (GE Healthcare). Affinipure F(ab′)2 fragment goat anti-mouse IgG, Fc fragment specific (Jackson ImmunoResearch Lab, Inc.) in 10 mM NaAc, pH 5 buffer was immobilized on a CMS Sensor Chip via amine coupling chemistry to a capture level between 4500-6000 response units (RU) using HBS-EP+(GE Healthcare) as the running buffer. Anti-aP2 IgG was diluted to between 1-10 μg/ml in running buffer. A 60 s injection of anti-aP2 IgG at 10 μl/min was used for capture by the immobilized anti-mouse IgG, Fc then aP2 was titrated from 25 nM to 3.13 nM over the captured anti-aP2 for 180 s at 30 μl/min followed by 300 s dissociation. The surface was regenerated by 2×60 s 40 mM HCl and 1×30 s 5 mM NaOH at 10 μl/min. The data were analyzed using Biacore T200 evaluation software (version 1.0) using the 1:1 binding model with local Rmax. […] The surface was regenerated by 1×60 s 40 mM HCl, 1×30 s 5 mM NaOH and 1×60 s 40 mM HCl at 10 μl/min. Steady state fitting was used to determine affinity values.

[3] = target: T2, human aP2 (fatty acid-binding protein, …); assay: method not stated in the sentence (FIG. 31); average binding affinity; PB1172, human aP2
[4] = target: T2, human aP2 (fatty acid-binding protein, …); assay: assay not given; KD (M) column under 'Human', first of two rows (also printed as 5.62 under KD (µM))
[5] = target: T3, mouse aP2 (fatty acid-binding protein, adipocyte, FABP4/aP2) (mouse, UniProt P04117 1-132); assay: assay not given; KD (M) column under 'Mouse', first of two rows (also printed as 4.14 under KD (µM))
T3 construct: Lipid-loaded and de-lipidated preparations are the same polypeptide and are told apart under assay; also called mouse FABP4; murine aP2
T3 sequence: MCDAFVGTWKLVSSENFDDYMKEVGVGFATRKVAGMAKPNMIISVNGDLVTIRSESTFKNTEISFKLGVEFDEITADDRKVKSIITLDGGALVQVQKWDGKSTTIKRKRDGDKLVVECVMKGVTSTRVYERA

[6] = target: T3, mouse aP2 (fatty acid-binding protein, …); assay: method not stated in the sentence (FIG. 31); average binding affinity; PB1172, mouse aP2
[7] = target: T3, mouse aP2 (fatty acid-binding protein, …); assay: assay not given; KD (M) column under 'Mouse', second of two rows (also printed as 4.99 under KD (µM))
[8] = target: T2, human aP2 (fatty acid-binding protein, …); assay: assay not given; KD (M) column under 'Human', second of two rows (also printed as 6.44 under KD (µM))
[9] = target: T2, human aP2 (fatty acid-binding protein, …); assay: SPR, Biacore T200: antibody captured on immobilized anti-mouse IgG Fc, aP2 titrated 25 to 3.13 nM, 1:1 binding model
Protocol: as §1

[10] = target: T3, mouse aP2 (fatty acid-binding protein, …); assay: assay not given; KD (M) column under 'Mouse', first of two rows (also printed as 5.53 under KD (µM))
[11] = target: T3, mouse aP2 (fatty acid-binding protein, …); assay: assay not given; KD (M) column under 'Mouse', second of two rows (also printed as 4.71 under KD (µM))
[12] = target: T3, mouse aP2 (fatty acid-binding protein, …); assay: method not stated in the sentence (FIG. 31); average binding affinity; PB1171, mouse aP2

T1 sequence (Q01469 whole entry): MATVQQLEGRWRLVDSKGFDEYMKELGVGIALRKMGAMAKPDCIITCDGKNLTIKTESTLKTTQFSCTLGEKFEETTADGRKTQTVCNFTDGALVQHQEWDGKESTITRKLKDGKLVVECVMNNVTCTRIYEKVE

binding result [1]: no binding
Kd [2]: 2.83 µM
B1: CA33, rabbit-mouse hybrid anti-aP2 monoclonal antibody (Rabbit Ab 909) (antibody, V domains shown)
VH: QSVEESGGRLVTPGTPLTLTCTVSGFSLSTYYMSWVRQAPGKGLEWIGIIYPSGSTYCASWAKGRFTISKASTTVDLKITSPTTEDTATYFCARPDNDGTSGYLSGFGLWGQGTLVTVSS
VL: DVVMTQTPASVSEPVGGTVTIKCQASEDISRYLVWYQQKPGQPPKRLIYKASTLASGVPSRFKGSGSGTDFTLTISDLECDDAATYYCQCTYGTYAGSFFYSFGGGTEVVVE
notes: also called Rabbit Antibody 909

binding result [1]: no binding
Kd [9]: 0.0011 µM
B3: H3, mouse anti-aP2 monoclonal antibody (H3 gL1/gH1) (antibody, V domains shown)
VH: QVQLQQPGAELVKPGASVKLSCKASGYTFTSNWITWVKQRPGQGLEWIGDIYPGSGSTTNNEKFKSKATLTVDTSSSTAYMQLSSLTSEDSAVYYCARLRGYYDYFDFWGQGTTLTVSS
VL: EVVLTQSPALMAASPGEKVTITCSVSSSISSSNLHWYQQKSETSPKPWIYGTSNLASGVPVRFSGSGSGTSYSLTISSMEAEDAATYYCQQWSHYPLTFGAGTKLELK
notes: Mouse IgG; also called wild-type parent H3

Continued, binder first:

B2: PB1172 (H3 gL11/gH19), reduced-affinity variant of H3 (antibody, mouse IgG1, V domains shown)
VH: B3 VH with W33A, Y52S
VL: B3 VL with W92A
notes: Heavy chain W33A, Y52S; light chain W91A, relative to H3; also called 5251.mIgG1168; APP5168/PB1172
Kd [3]: 6.03 µM
Kd [4]: 5.62 µM
Kd [5]: 4.14 µM
Kd [6]: 4.57 µM
Kd [7]: 4.99 µM
Kd [8]: 6.44 µM

B4: PB1171 (H3 gL1/gH20), reduced-affinity variant of H3 (antibody, mouse IgG1, V domains shown)
VH: B3 VH with W33A, Y52S, Y102F
VL: B3 VL
notes: Heavy chain W33A, Y52S, Y98F relative to H3; also called 5252.mIgG1.169; APP5169/PB1171
Kd [10]: 5.53 µM
Kd [11]: 4.71 µM
Kd [12]: 5.12 µM
